The data set concerns SwaI restriction endonuclease (native) (Staphylococcus warneri). The data set can be described thus: cleavage_in_vitro. As to conditions: more than 544,000 units in Source-15S fractions 17-19; restriction activity assayed on M13mp19 RF DNA.

Regarding M13mp19 RF DNA, the activity was 544000 units.
